Assay results from the DeepSol protein solubility set.

Assay: soluble on expression in E. coli; label from the status in PepcDB or PDB records

Sequence | soluble on expression in E. coli
MNKLVCSTFAILAIIAISQVQSAVLPVSSKEVALITSSASTTSSSETSIDTLGSSRVKRQGGCGCCGCGCGCCGCGGGGGGGCGCCCCRPKCCCCCRRCCTCCRTCCCTRCCTCCRPCCCGCGCGCGCCGCGGGGRKRRSLQNLRIALANKIEGIAKVVKGSAVEASVMNALAPVNDATVEEKKDVIN | not soluble
MKSRIVYGPILSRRLGRSLGIDVIKNTGSKKNCNYDCIYCQLGHVELKLGSPEDVKEAVTPKEVSESFEKFYKDVEGLDYITFSGTCEPSLNLSLGEMIQSIREISGVPVCVITNSSLMGREDVRKNLSQADLVVATLVSGIEKTWRKIHRPAPCINFQEIIEGLRELAKAGDGKKLALEVMFLESETGEPLNSTDEEVDCLIKTIRYICPDEIEVLTISRPPAEKWVKPVSEERLREIADRFISEFGAEKVRLVLKGKKKKAKVLHRDLEEEVYALLLRRPCTFEQTWQGLSIDPESLRPVLEKLLAEGKIEEIGSKNSVYYRAK | not soluble
MNTPNSSCTILFENLYDNDLALKLFNNRTIVDNILRNVKGDINNRLELRLVNKSFNLAAIHVIRKENRTVVFHKFNRCDRLHKISPCPDCSVHLNSVKLNKKNIFQYARFLKQTMKIMVIKIRIEDSKRVCCMITDVHQVIHKSLIGSDYDKVEEFVGIDQISFSTCIPCEKIAANCKVFGPVQNDMFNAILRLKHHYDVLQVKDMRLYKLMILNKEDPTVVEDFINSNITCSKLTIFLMYMYEKEAFGYSLPREFLDLLIKKWNVKTVEIVPRQDQPIPYYFHCNTDFIVPKAKFYVDYWTQPRSKYTLDGVEIDLQLTKVVEQQIKNRKSLFDNFIANARRIFPSNKITVRFSKEVCQEMMSQGNVEDFISGIILMTQKDAQPNSHISLKLYPEEVDAPLIDSFLRENFEKKFDSWNLETVSDSSANLPAEKCYQFFNQSTNCKIIFYICC | not soluble
MSTHLQGSLFDQTDELGLGPLDGLRRTVLGAGAWIDLLPGWLSGADALFERLAADVPWRAERRKMYDQTVDVPRLLAYYRAGDTLPHPVLAEARDALSAHYVAELGEPFTTAGLCYYRDGRDSVAWHGDRIGRGAREDTMVAILSVGAPRDLALRPRGGGDVLRRPLGHGDLIVMGGSCQRTWEHAIPKSTRAAGPRISIQFRPSGVNLEHHHHHH | soluble
MKKIATATIATAGFATIAIASGNQAHASEQDNYGYNPNDPTSYSYTYTIDAQGNYHYTWKGNWHPSQLNQDNGYYSYYYYNGYNNYNYNNYNNGYSYNNYSRYNNYSNNNQSYNYNNYNSYNTNSYRTGGLGASYSTSSNNVQVTTTMAPSSNGRSISSGYTSGRNLYTSGQCTYYVFDRVGGKIGSTWGNASNWANAAARAGYTVNNTPKAGAIMQTTQGAYGHVAYVESVNSNGSVRVSEMNYGYGPGVVTSRTISASQAAGYNFIHLEHHHHHH | not soluble
MGSDKIHHHHHHMNGALDVLAPAEVIVAATAPADNEASDMPPVEIVLDSPPVSAEMVFDEDADLLDRLATDDEAAFRMLVERHIDRAYSIALRILGNSADAEDVVQDTMLKVWTHRGRWQHGRAKFSTWLYRVVSNRCIDLRRKPRTENVEAVPEVADTQPDAVRVIERNELSNLLEAAMQRLPEQQRIAVILSYHENMSNAEIAEVMDTTIAAVESLLKRGRQQLRARLSGDESELRAAFTDF | not soluble
MLKGEDIGIDLGTASVLIYVRGKGIVLKEPSVIAVVQGKREVKAVGAEAYRMLGRTPGNIVAVRPLKDGVIADYALTEKMLLLFLQKVLSPMSRLFKGRVRIMVGVPSGVTDVERRAVVQAVSTLAHKVYLIEEPLAAAIGAGINVAEPTGSMVVDIGGGSTDIAVISLGGIVRSESLRIAGNEMDQAIILHIRQKYNLLIGERTAEELKIRLGRAKLLPGEEKEVAEVRGRDLLTGLPRTAEIPAEDIVEALQEPLSKIFQGVRNVLESTPPELASDIYERGILLTGGGALLRNLDVALQKATGVPVVVTENPIEAVALGTGKALEMLHVLEDTILSSDDVLRR | soluble
MGSDKIHHHHHHMDLTHIHPEFRHILGMSDKDRMAFLDEPRWIGYAQANRLLDNLRSLMEKPVRPRMPNLLIVGDSNNGKTTVIRRFQKLHGEGYVNEDAEPVKPVIVSEAPPSADEKGLYIAILERFWTPYRATDSASKLRYQVVHLMRDCHVRILVIDEFHSLLTGTVTKQREVMNAIKLLCNELAIPIVGVGIREAVRVLHTDPQHASRFDVVTLPPWELNPEFQQLVASFERVLPLKKPSLLHQSETVSLLFAISEGNLGNLHRLLVECAVEAIKTGTEKIDKSIIEGKQWLRPTHGIRELV | not soluble
NFIYAHLNRIIRRDDLNMIYIAGPGHGGPALVANTYLEGTYSEHYPDISQDIQGMKHLFRQFSFPGGIGSHATPEIPGSIHEGGELGYALSHAFGAVFDNPDLIAACVVGDGEAETGPLATAWHSNKFLNPVHDGAVLPILHLNGYKIANPTILARISREELDQLFQGYGYQPYIVEGEDPLTMHQLMA | not soluble
MVSAMSNIWSNWSGFVTAEPRLIASPADAGELGDLVRTAPGPVRVVGAGHSFTPLVKSQGTILSLEKLEGLVSHDPQKHQARVKAGTRLGPLMHILQGIGQGLPNMGDIDRQAIGGALGTATHGSGPTLGAYHTQLETVQIVDGLGKVRDFTRAGDQDMIHAIGVALGAFGVLSEVTLNNIATYRLRRRKWVLPIGDMLRDFEKMMTAHRSAEFYYIPFSGYAQFIASDFSTEATTTRPTDDDEGSLRTLRRLRTGLAWLPSLRRRLILGAVAKVPSEDYVQDWLNVYASDRQTKFNEMEYHLPFEEGPKALAEIIELTEKRFPEVYFPMEVRSVAPDKFWLSPFYNRPTCSIAIHHDAASDPLPFMQAAEPIFRRYGGRPHWGKMHSLKAADFKKLYPRWDDAMAVRRDIDPQNRFVSPYMAGLFGIEPSPFGIDPLEHHHHHH | not soluble
MSLQNTLGHRLVVGERQLLRFPAQQRSAAGDRLHAPSVYRRACIASLRSRQACYRHARRRCRQQEGAAMTGINRRELLRGMLASGVRAALPAGAAGALLPGSADAAPAAAKDATPLAPLGDASLAPRERLLFDFGWRFHPGHASDPSRDFEFGTFQRTFAKAGKDTATAAQLAFDDSNWQQVDLPHDWAVTLPFRPEPISASMTEEDPAAAHGYKALGTSFPENSVGWYRRMLQIPASDLGKRICLVFDGVFRDCVVFCNGHIVGRNASGYCGFEVDLSEVLDYGKPNLIVVRVDATLGEGWFYEGAGIYRHLWLQKTDPLHVPQHGVFVRSSVQGDTATAQLSTEVRNDGTASRQCVVQARITAPYGRIVAQAASAAVTVAPGQVQVVEQTVPLGQAALWSIDTPQLYTLTTSVHSAGVAVDALVTPFGVRSIAFDAQRGFLLNGAPLKLHGTNNHQDHAGVGTAIPDALHAWRLRQLKSMGCNAYRSSHNPATPELLALCDRLGMFVIEETRRMSTDPEAMAELETMVRRGRNHPSVILWSLGNEEPQQVTERGARIVTRMQQRVRQLDPTRPTTFAMDKGFGDGVGQVVDVVGFNYRTSQMDGFHAQYPNIPIYGSETGSTVSVRGNYQRDDTRGYTRAYDTDHPWWASTAEAWWSYVAQRPYIAGGFIWTGFDYRGEPTPYNRWPNVGSQFGVLDSCGFPKDNYWYYRAQWTSEPVLHLFPHWNWDGLLQPDDKGRVEVWCHSNLEAVELLVNGVSQGLQQVPAYGHVEWRVAYAPGVIEARGYRGGKLVLTERRETVGKPAAIRLSCDRSALRADAEDVAVVKVEIVDAQGRLVPNADHLVHLVLRGPARLIGVGNGDPSSHEDDKAPQRKAFNGLCMALLRSTRSSGQILLQATAPGLTSAALHLQAATSAEGHHHHHH | soluble
MLIACRLCAKAVQQGLKTVVYVPDERLAGQFDKLLWTFTPTGFVPHCRVDNKLADVTPVIMNSRPVLMEAGCFGVLLNLDADVPPGFEQFPRVVEIVDEAEDGKLQARKRYRHYQEQGHDVRHHRLDGN | not soluble
GPGSMEDAHMLVATDDADVAYFGIFDGHSNAECSAYVARELPQRLKKLPESITAEMLEKVCIEVDEAYMKTSTEGGTTGTFCVIRKDLTVTIANVGDSRILVCRGGKLIFATEDHKPYIPGETERIVACGGSVVSNRVDGDLAVSRAFGDASFKVKGTKDYRMQKVIAVPDVSVLQCEPNDFIILACDGVFEGNFSNEDVCQFVWEQQQNCWDDLAVVACRVCDEAIRCGSKDNISCLVVQLAEGASRVKAFGATSFVPGPPFPRNQQPCRAAYAQMAELGHTTTAAALQTRYQLLQAFSKNKLNSQPPVMRTAFEMSDEVDVETEWSFFGKGPAPGNEKNFFEALANTGNSS | not soluble
